Target: complement C1q (Homo sapiens, UniProt P02745, C1q succinimidyl alkyne-labeled, Fz8 CRD IgG/Fc fusion)
Assay: pull-down with ELISA quantification, Scatchard

- Kd: 2.8 nM
B1: Frizzled-8 (Fz8/Fc) CRD (protein)
chain: AKELACQEITVPLCKGIGYNYTYMPNQFNHDTQDEAGLEVHQFWPLVEIQCSPDLKFFLCSMYTPICLEDYKKPLPPCRSVCERAKAGCAPLMRQYGFAWPDRMRCDRLPEQGNPDTLCMDY
